Entries after “also recorded” stand apart in the source; their conditions may differ.
What was measured:
human NGF [1] = target: T1, human NGF (Homo sapiens, UniProt P01138); test: BIAcore affinity determination assay (kon, koff, KD of purified Fabs); type: binding; settings: higher affinity than 911
Experimental: Affinities of anti-NGF Fabs and monoclonal antibodies were determined using the BIAcore300™ surface plasmon resonance (SPR) system (BIAcore, INC, Piscaway N.J.). CM5 chips were activated with N-ethyl-N′-(3-dimethylaminopropyl)-carbodimide hydrochloride (EDC) and N-hydroxysuccinimide (NHS) according to the supplier's instructions. Human NGF was diluted into 10 mM sodium acetate pH 4.0 and injected over the activated chip at a concentration of 0.005 mg/mL. Using variable flow time across the individual chip channels, two ranges of antigen density were achieved: 100-200 response units (RU) for detailed kinetic studies and 500-600 RU for screening assays. The chip was blocked with ethanolamine. […] HBS-EP buffer (0.01M HEPES, pH 7.4, 0.15 NaCl, 3 mM EDTA, 0.005% Surfactant […]) was used as running buffer for all the BIAcore assays.
Serial dilutions (0.1-10× estimated KD) of purified Fab samples were injected for 1 min at 100 μL/min and dissociation times of up to 2 h were allowed. The concentrations of the Fab proteins were determined by ELISA and/or SDS-PAGE electrophoresis using as a standard a Fab of known concentration (as determined by amino acid analysis). Kinetic association rates (kon) and dissociation rates (koff) were obtained simultaneously by fitting the data to a 1:1 Langmuir binding model (Karlsson, R. Roos, H. Fagerstam, L. Petersson, B. (1994). Methods Enzymology 6. 99-110) using the BIAevaluation program. Equilibrium dissociation constant (KD) values were calculated as koff/kon.
The binding affinities to human NGF of Fabs E3 and 3C were measured using BIAcore analysis according to the manufacturer's instructions and as described above, except that 100 RU NGF was used on chip to prevent a rebinding effect. Briefly, several concentrations of antibodies (Fabs) were injected for 2 minutes onto a CM5 chip with 100 RU of immobilized human NGF on it, and permitted to dissociate for 1800 seconds. Mouse antibody 911 (Fab) was analyzed as a control. Data was analyzed using BIAevaluation software following the manufacturer's instructions. E3 bound human NGF with a KD of approximately 0.07 nM (and with a kon of about 6.0e5 M-1s-1, and a koff of about 4.2e-5s-1).

human NGF [2] = target: T1, human NGF; test: Mouse E17/18 trigeminal neuron survival assay, NGF; type: cell-based; settings: saturating NGF (400 pM); 48 hours
Experimental: (§1) The ability of antibody E3 to specifically block NGF activity was evaluated by measurement of the capacity of the antibody to inhibit survival of mouse E17/18 trigeminal neurons in vitro in the presence of saturating concentrations of NGF, the NGF-related neurotrophin NT3, or the NGF-unrelated neurotrophic factor, macrophage stimulating protein (MSP). The survival of mouse E17/18 trigeminal neurons is a sensitive assay to evaluate the NGF-blocking activity of anti-NGF antagonist antibodies because NGF is required to support survival of these neurons at higher concentrations than the level of NGF required to support survival of E13.5 TG neurons).
(§2) The survival assay was conducted as follows: time mated pregnant Swiss Webster female mice were euthanised by CO2 inhalation. The uterine horns were removed and the embryos (at embryonic day 17 or 18) were extracted and decapitated. The trigeminal and nodose ganglia were dissected and cleaned. The ganglia were then trypsinised, mechanically dissociated and plated at a density of 100-300 cells per well in defined, serum-free medium in 4-well plates (Greiner) coated with poly-L-ornithine and laminin.
(§3) E17/18 trigeminal neurons were grown either without added neurotrophic factors (negative control) or in the presence of saturating concentrations of human NGF (400 pM and 15 pM) (positive control); NT3 (400 pM); or MSP (600 pM). […]

NT3 = target: T2, NT3 (Homo sapiens, UniProt P20783); test: Mouse E17/18 trigeminal neuron survival assay, NT3; type: cell-based; settings: saturating NT3; antibody up to 200 nM; 48 hours
T2 sequence (P20783 139-257): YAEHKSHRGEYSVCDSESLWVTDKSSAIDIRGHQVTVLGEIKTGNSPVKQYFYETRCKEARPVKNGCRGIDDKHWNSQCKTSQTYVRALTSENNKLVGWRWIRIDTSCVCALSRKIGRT
Experimental: as §1, §2, §3

T1 sequence (P01138 122-241): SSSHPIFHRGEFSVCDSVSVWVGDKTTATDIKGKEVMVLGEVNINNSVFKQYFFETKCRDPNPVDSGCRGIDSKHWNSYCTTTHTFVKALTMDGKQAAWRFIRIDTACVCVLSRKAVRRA

binding affinity to human NGF relative to parent mouse antibody 911 (human NGF [1]): approximately 50 fold
B1: E3: humanized, affinity matured anti-NGF antagonist antibody; variable regions SEQ ID NO:1 and 2; human IgG2a (A330P331 to S330S331), kappa (antibody, V domains shown)
VH: QVQLQESGPGLVKPSETLSLTCTVSGFSLIGYDLNWIRQPPGKGLEWIGIIWGDGTTDYNSAVKSRVTISKDTSKNQFSLKLSSVTAADTAVYYCARGGYWYATSYYFDYWGQGTLVTVS
VL: DIQMTQSPSSLSASVGDRVTITCRASQSISNNLNWYQQKPGKAPKLLIYYTSRFHSGVPSRFSGSGSGTDFTFTISSLQPEDIATYYCQQEHTLPYTFGQGTKLEIKRT
modifications: human IgG2a constant (A330S/P331S) and kappa constant missing
survival of E17/18 trigeminal neurons promoted by NGF (human NGF [2]): completely blocked; also recorded: totally blocked | survival of E17/18 trigeminal neurons promoted by NT3 (NT3): had no effect; also recorded: did not inhibit

— patent publication US20080182978A1, “ANTI-NGF ANTIBODIES AND METHODS USING SAME” (RINAT NEUROSCIENCE CORP, priority 2002, published 2008)
